Experimental data from article PMC5044835, “Crystal Structure of the Human Astrovirus Capsid Protein” (Journal of Virology, 2016).

B1: astrovirus VP70 expressed in insect cells (natural protein)
chain: MASKSDKQVTVEVNNNGRSRSKSRARSQSRGRGRSVKITVNSHNKGRRQNGRNKYQSNQRVRKIVNKQLRKQGVTGPKPAICQTATATLGTIGSNTTGATEIEACILLNPVLVKDATGSTQFGPVQALGAQYSMWKLKYLNVRLTSMVGASAVNGTVVRISLNPTSTPSSTSWSGLGARKHLDVTVGKNAVFKLKPSDLGGPRDGWWLTNTNDNASDTLGPSIEIHTLGQTMSSYQNTQFTGGLFLVELSSAWCFTGYAANPNLVNLVKSTDKSVNVTFEGSAGTPLIMNVPEHSHFARTAVEHSSLSTSLSRAGGESSSDTVWQVLNTAVSAAELVTPPPFNWLVKGGWWFVKLIAGRARTGARRFYVYLSYQDALSNKPALCTGGVPASARQSNPVRTTLQFTQMNQPSLGHGATPMTFGRSIPEPGEQFRVLLTVGPPMAPNTANSQNWVNKTIVPPENQYTVKIGIDLEHYTTMQGFTPVESVSWYTADFQPSDEPSPIPGLYARVNNTKKADVYGVQQFKSSHTNNRHQITSVFLVRVTTSFQVINYTSYFIRGAESGSNVSNLKIRDQTYHTPLQFTQGKWYLLTSTVMHDGPTSSGWVWMNQELTNNIAYRVDPGMMYLITPPPAASQLYFELHTVLPQARSEEPETYVD
notes: construct, tags and purification are not described; source: insect cells
B2: astrovirus VP70 expressed in E. coli (natural protein)
chain: B1 chain
notes: construct, tags and purification are not described; source: E. coli

Target: the molecule itself
Assay: not stated; data not shown; oligomeric state of recombinant VP70 expressed in insect cells or E. coli

| Protein | stoichiometry N |
| --- | --- |
| B1 | 2 |
| B2 | 2 |
